Data taken from patent publication US20140135482A1 (Hoffmann-La Roche, published 2014).

Tests used:
[1] = biological target: T1, recombinant c-Met ectodomain (ECD) (human, UniProt P08581 25-932); assay: SPR (Biacore T100), antibody captured by anti-Fc gamma antibody, ECD in solution, 25 C
T1 construct: the whole entry for human c-Met is named; also called c-Met ECD

[2] = biological target: T2, recombinant Her3 ectodomain (ECD) (human, UniProt P21860 20-643); assay: as above
T2 construct: the whole entry for human ErbB-3 is named; also called human HER3 ECD

human ErbB-3 (on cells) [3] = biological target: T3, human ErbB-3 (on cells) (human, UniProt P21860 20-1342); assay: cell-based or functional assay
human ErbB-3 (on cells) [4] = biological target: T3, human ErbB-3 (on cells); assay: flow cytometry on A431 cells, dilution series of the bispecific antibody in the presence of Fab 5D5 (its concentration is not given on the sheet), detected with PE-coupled anti-human Fc antibody
human ErbB-3 (on cells) [5] = biological target: T3, human ErbB-3 (on cells); assay: flow cytometry on A431 cells, dilution series of the antibody, detected with PE-coupled anti-human Fc antibody
Experimental: (§1) A431 were detached and counted. 1.5×10e5 cells were seeded per well of a conical 96-well plate. Cells were spun down (1500 rpm, 4° C., 5 min) and incubated for 30 min on ice in 50 μL of a dilution series of the respective bispecific antibody in PBS with 2% FCS (fetal calf serum). Cells were again spun down and washed once with 200 μL PBS containing 2% FCS followed by a second incubation of 30 min with a phycoerythrin-coupled antibody directed against human Fc which was diluted in PBS containing 2% FCS (Jackson Immunoresearch, 109116098). Cells were spun down washed twice with 200 μL PBS containing 2% FCS, resuspended in BD CellFix solution (BD Biosciences) and incubated for at least 10 min on ice. Mean fluorescence intensity (mfi) of the cells was determined by flow cytometry (FACS Canto, BD). Mfi was determined at least in duplicates of two independent stainings Flow cytometry spectra were further processed using the FlowJo software (TreeStar). Half-maximal binding was determined using XLFit 4.0 (IDBS) and the dose response one site model 205.
(§2) The binding properties of the bispecific antibodies to their respective receptor on the cell surface was analyzed on A431 cancer cells in a flow cytometry based assay. Cells were incubated with the mono- or bispecific primary antibodies and binding of these antibodies to their cognate receptors was detected with a secondary antibody coupled to a fluorophor binding specifically to the Fc of the primary antibody. The mean fluorescence intensity of a dilution series of the primary antibodies was plotted against the concentration of the antibody to obtain a sigmoidal binding curve.

human c-Met (on cells) = biological target: T4, human c-Met (on cells) (human, UniProt P08581 25-1390); assay: as above
T4 construct: Endogenous receptor on human cell lines (A431, A549, HT29, DU145, HUVEC); also called c-Met receptor
Experimental: as §1, §2

B1: MH_TvAB21 (bispecific antibody)
chain 1: not shown
chain 2: not shown
chain 3: DIVMTQSPSSLTVTAGENVTMSCKSSQSLLNSGNQKNYLTWYQQKPGQPPKLLIYWASTRESGVPNRFTGSGSGTDFTLAISSVQAEDLSIYYCQSDYSYPYTFGQGTKLEIKRTVAAPSVFIFPPSDEQLKSGTASVVCLLNNFYPREAKVQWKVDNALQSGNSQESVTEQDSKDSTYSLSSTLTLSKADYEKHKVYACEVTHQGLSSPVTKSFNRGEC
B1 showed a Kd [1] of 0.8 nM and a Kd [2] of 1.8 nM.

B2: MH_TvAB22 (bispecific antibody)
chain 1: not shown
chain 2: not shown
chain 3: B1 chain 3
With B2 the Kd [1] was 0.9 nM and the Kd [2] was 2.1 nM.

B3: <ErbB3-c-Met> Her3/Met_6C (bispecific antibody, human IgG1, kappa)
heavy 1: not shown
heavy 2: not shown
light: DIQMTQTTSSLSASLGDRVTISCRARQDISNYLNWYQRKPDGTVKLLIYYTSRLHSGVPSRFSGSGSGTDYSLTISNLEQEDIATYFCQQGNTFPWTFGGGTKLEIKRTVAAPSVFIFPPSDEQLKSGTASVVCLLNNFYPREAKVQWKVDNALQSGNSQESVTEQDSKDSTYSLSSTLTLSKADYEKHKVYACEVTHQGLSSPVTKSFNRGEC
B3 was tested, and the “% ErbB3 receptor on A431 cell surface measured after 2 h” value (“% ErbB3 receptor on A431 cell surface” below) (human ErbB-3 (on cells) [3]) was 94% and the “% Internalization of ErbB3 after 2 h on A431 cells” value (shortened to “% Internalization of ErbB3”) (human ErbB-3 (on cells) [3]) was 6%.

B4: <ErbB3-c-Met> Her3/Me_scFvSSKH (bispecific antibody, human IgG1, kappa)
heavy 1: not shown
heavy 2: not shown
light: B3 light
B4 was tested, and the “EC50 (read off the curve)” value (human ErbB-3 (on cells) [4]) was about 0.06 µg/mL.

B5: <ErbB3-c-Met> Her3/Met_SSKH (bispecific antibody, human IgG1, kappa)
heavy 1: not shown
heavy 2: not shown
light: B3 light
With B5 the “% ErbB3 receptor on A431 cell surface” value (human ErbB-3 (on cells) [3]) was 89% and the “% Internalization of ErbB3” value (human ErbB-3 (on cells) [3]) was 11%.

B6: <ErbB3-c-Met> Her3/Met_KHSS (bispecific antibody, human IgG1, kappa)
heavy 1: not shown
heavy 2: not shown
light: B3 light
notes: also called Her3/c-Met KHSS
B6: binds (human ErbB-3 (on cells) [5]).

B7: <ErbB3> Mab 205 (chimeric) (antibody, V domains shown)
VH: QGQMQQSGAELVKPGASVKLSCKTSGFTFRSSYISWLKQKPRQSLEWIAWIYAGTGSPSYNQKFTGKAQLTVDTSSSTAYMQLSSLTSEDSAIYYCARHRDYYSNSLTYWGQGTLVTVSA
VL: DIVMTQSPSSLTVTAGENVTMSCKSSQSLLNSGNQKNYLTWYQQKPGQPPKLLIYWASTRESGVPNRFTGSGSGTDFTLAISSVQAEDLSIYYCQSDYSYPYTFGQGTKLEIK
B7 was tested, and the “% ErbB3 receptor on A431 cell surface” value (human ErbB-3 (on cells) [3]) was 60% and the “% Internalization of ErbB3” value (human ErbB-3 (on cells) [3]) was 40%.

B8: <c-Met> Mab 5D5 (antibody, human IgG1, kappa, V domains shown)
VH: EVQLVESGGGLVQPGGSLRLSCAASGYTFTSYWLHWVRQAPGKGLEWVGMIDPSNSDTRFNPNFKDRFTISADTSKNTAYLQMNSLRAEDTAVYYCATYRSYVTPLDYWGQGTLVTVSS
VL: DIQMTQSPSSLSASVGDRVTITCKSSQSLLYTSSQKNYLAWYQQKPGKAPKLLIYWASTRESGVPSRFSGSGSGTDFTLTISSLQPEDFATYYCQQYYAYPWTFGQGTKVEIKR
notes: Monospecific, bivalent c-Met parent antibody (humanized); also called c-Met 5D5; bivalent 5D5
B8 was tested, and the “EC50 (read off the curve)” value (human c-Met (on cells)) was about 0.06 µg/mL.

B9: <ErbB3> HER3 clone 29 (antibody, human IgG1, kappa, V domains shown)
VH: DVQLQESGPGLVKPSQSLSLTCSVTGYSITSAYYWNWIRQFPGNKLEWMGYISYGGSNSYAPSLKNRFSITRDTSKNQFFLKLNSVTTEDTATYYCARESDYAYFDYWGQGTTLTVSS
VL: DIQMTQTTSSLSASLGDRVTISCRARQDISNYLNWYQRKPDGTVKLLIYYTSRLHSGVPSRFSGSGSGTDYSLTISNLEQEDIATYFCQQGNTFPWTFGGGTKLEIKR
notes: Monospecific bivalent parent antibody (chimeric)
In the case of B9, the “EC50 (read off the curve)” value (human ErbB-3 (on cells) [5]) is reported as about 0.03 µg/mL, the “% ErbB3 receptor on A431 cell surface” value (human ErbB-3 (on cells) [3]) is reported as 44% and the “% Internalization of ErbB3” value (human ErbB-3 (on cells) [3]) is reported as 54%.
